B1: Protein TIFY 7 (Arabidopsis thaliana (Mouse-ear cress)), Q8W4J8 (parent)
chain: MERDFLGLSDKQYLSNNVKHEVNDDAVEERGLSTKAAREWGKSKVFATSSFMPSSDFQEAKAFPGAYQWGSVSAANVFRRCQFGGAFQNATPLLLGGSVPLPTHPSLVPRVASSGSSPQLTIFYGGTISVFNDISPDKAQAIMLCAGNGLKGETGDSKPVREAERMYGKQIHNTAATSSSSATHTDNFSRCRDTPVAATNAMSMIESFNAAPRNMIPSVPQARKASLARFLEKRKERLMSAMPYKKMLLDLSTGESSGMNYSSTSPT
B2: Protein TIFY 7 (Arabidopsis thaliana (Mouse-ear cress)), Q8W4J8 (parent)
chain: B1 chain
partner: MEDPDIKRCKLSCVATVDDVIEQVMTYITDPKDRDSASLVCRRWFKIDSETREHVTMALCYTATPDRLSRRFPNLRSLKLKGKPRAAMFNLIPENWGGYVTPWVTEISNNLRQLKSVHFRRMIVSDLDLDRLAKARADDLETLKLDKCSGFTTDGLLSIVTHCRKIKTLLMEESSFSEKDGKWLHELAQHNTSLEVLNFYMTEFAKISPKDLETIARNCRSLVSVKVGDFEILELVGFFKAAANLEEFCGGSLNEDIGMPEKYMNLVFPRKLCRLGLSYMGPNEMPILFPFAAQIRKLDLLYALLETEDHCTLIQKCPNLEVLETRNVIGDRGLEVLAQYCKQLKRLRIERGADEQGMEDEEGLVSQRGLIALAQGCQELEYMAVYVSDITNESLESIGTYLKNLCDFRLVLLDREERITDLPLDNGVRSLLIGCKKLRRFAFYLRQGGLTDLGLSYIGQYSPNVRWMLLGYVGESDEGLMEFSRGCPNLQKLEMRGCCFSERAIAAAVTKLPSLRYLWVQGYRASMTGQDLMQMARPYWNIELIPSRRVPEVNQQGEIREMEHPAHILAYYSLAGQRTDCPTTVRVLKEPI

Variants of: B1
Conditions: with myc2_arath MYC2, Q39204
Chain of myc2_arath MYC2, Q39204 (Q39204 whole entry): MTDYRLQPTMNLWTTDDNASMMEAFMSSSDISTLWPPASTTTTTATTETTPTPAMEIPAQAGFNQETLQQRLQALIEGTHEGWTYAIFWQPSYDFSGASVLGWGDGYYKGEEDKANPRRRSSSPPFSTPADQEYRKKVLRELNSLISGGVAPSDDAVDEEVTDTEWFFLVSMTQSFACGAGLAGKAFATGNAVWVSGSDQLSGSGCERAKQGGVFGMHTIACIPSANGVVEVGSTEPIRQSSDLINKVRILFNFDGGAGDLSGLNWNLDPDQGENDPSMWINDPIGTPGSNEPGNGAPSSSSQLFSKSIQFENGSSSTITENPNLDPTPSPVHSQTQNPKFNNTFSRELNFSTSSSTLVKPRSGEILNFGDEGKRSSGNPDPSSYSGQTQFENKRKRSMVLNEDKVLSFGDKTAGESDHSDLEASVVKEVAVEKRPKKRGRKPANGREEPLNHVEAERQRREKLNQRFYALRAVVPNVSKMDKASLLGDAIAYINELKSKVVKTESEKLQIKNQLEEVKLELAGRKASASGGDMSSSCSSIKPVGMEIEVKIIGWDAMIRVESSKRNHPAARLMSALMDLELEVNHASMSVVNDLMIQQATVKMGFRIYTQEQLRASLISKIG

Effect of a mutation on the interaction, disrupting interaction strength:
MERDFLGLSDKQYLSNNVKHEVNDDAVEERGLSTKAAREWGKSKVFATSSFMPSSDFQEAKAFPGAYQWGSVSAANVFRRCQFGGAFQNATPLLLGGSVPLPTHPSLVPRVASSGSSPQLTIFYGGTISVFNDISPDKAQAIMLCAGNGLKGETGDSKPVREAERMYGKQIHNTAATSSSSATHTDNFSRCRDTPVAATNAMSMIESFNAAPRNMIPSVPQARKASLARFLEKAKERLMSAMPYKKMLLDLSTGESSGMNYSSTSPT [R234A]
MERDFLGLSDKQYLSNNVKHEVNDDAVEERGLSTKAAREWGKSKVFATSSFMPSSDFQEAKAFPGAYQWGSVSAANVFRRCQFGGAFQNATPLLLGGSVPLPTHPSLVPRVASSGSSPQLTIFYGGTISVFNDISPDKAQAIMLCAGNGLKGETGDSKPVREAERMYGKQIHNTAATSSSSATHTDNFSRCRDTPVAATNAMSMIESFNAAPRNMIPSVPQARKASLARFLEAAAERLMSAMPYKKMLLDLSTGESSGMNYSSTSPT [K233A;R234A;K235A]
MERDFLGLSDKQYLSNNVKHEVNDDAVEERGLSTKAAREWGKSKVFATSSFMPSSDFQEAKAFPGAYQWGSVSAANVFRRCQFGGAFQNATPLLLGGSVPLPTHPSLVPRVASSGSSPQLTIFYGGTISVFNDISPDKAQAIMLCAGNGLKGETGDSKPVREAERMYGKQIHNTAATSSSSATHTDNFSRCRDTPVAATNAMSMIESFNAAPRNMIPSVPQARKASLARFLEAAKERLMSAMPYKKMLLDLSTGESSGMNYSSTSPT [K233A;R234A]

Variants of: B2
Conditions: with coi1_arath COI1, O04197

Effect of a mutation on the interaction, disrupting interaction strength:
MERDFLGLSDKQYLSNNVKHEVNDDAVEERGLSTKAAREWGKSKVFATSSFMPSSDFQEAKAFPGAYQWGSVSAANVFRRCQFGGAFQNATPLLLGGSVPLPTHPSLVPRVASSGSSPQLTIFYGGTISVFNDISPDKAQAIMLCAGNGLKGETGDSKPVREAERMYGKQIHNTAATSSSSATHTDNFSRCRDTPVAATNAMSMIESFNAAPRNMIPSVPQARKASLARFLEAAAERLMSAMPYKKMLLDLSTGESSGMNYSSTSPT [K233A;R234A;K235A]
MERDFLGLSDKQYLSNNVKHEVNDDAVEERGLSTKAAREWGKSKVFATSSFMPSSDFQEAKAFPGAYQWGSVSAANVFRRCQFGGAFQNATPLLLGGSVPLPTHPSLVPRVASSGSSPQLTIFYGGTISVFNDISPDKAQAIMLCAGNGLKGETGDSKPVREAERMYGKQIHNTAATSSSSATHTDNFSRCRDTPVAATNAMSMIESFNAAPRNMIPSVPQAAAASLARFLEKRKERLMSAMPYKKMLLDLSTGESSGMNYSSTSPT [R223A;K224A]
MERDFLGLSDKQYLSNNVKHEVNDDAVEERGLSTKAAREWGKSKVFATSSFMPSSDFQEAKAFPGAYQWGSVSAANVFRRCQFGGAFQNATPLLLGGSVPLPTHPSLVPRVASSGSSPQLTIFYGGTISVFNDISPDKAQAIMLCAGNGLKGETGDSKPVREAERMYGKQIHNTAATSSSSATHTDNFSRCRDTPVAATNAMSMIESFNAAPRNMIPSVPQARKASLARFLEAAKERLMSAMPYKKMLLDLSTGESSGMNYSSTSPT [K233A;R234A]
MERDFLGLSDKQYLSNNVKHEVNDDAVEERGLSTKAAREWGKSKVFATSSFMPSSDFQEAKAFPGAYQWGSVSAANVFRRCQFGGAFQNATPLLLGGSVPLPTHPSLVPRVASSGSSPQLTIFYGGTISVFNDISPDKAQAIMLCAGNGLKGETGDSKPVREAERMYGKQIHNTAATSSSSATHTDNFSRCRDTPVAATNAMSMIESFNAAPRNMIPSVPQARKASLARFLEKAKERLMSAMPYKKMLLDLSTGESSGMNYSSTSPT [R234A]
